Reference: US5723761

Legend:
C16:0-ACP [1] = target: C16:0-ACP
C16:0-ACP [2] = target: C16:0-ACP; remark: listed apart in the source
C14:0-ACP [3] = target: C14:0-ACP
C14:0-ACP [4] = target: C14:0-ACP; remark: listed apart in the source

Substance | Fatty Acyl Composition of Transgenic Canola Seeds (mol %), 16:0 (C16:0-ACP [1]) | Fatty Acyl Composition of Transgenic Canola Seeds (mol %), 10:0 (C10:0-ACP) | Fatty Acids (nmol/ml), total fatty acid analysis of liquid cultures of CUPH-1 transformed K27 (fadD) (14:1-ACP) | Fatty Acids (nmol/ml), total fatty acid analysis of liquid cultures of CUPH-1 transformed K27 (fadD) (C18:1-ACP) | Fatty Acids (nmol/ml), total fatty acid analysis of liquid cultures of CUPH-1 transformed K27 (fadD) (16:1-ACP) | Fatty Acids (nmol/ml), total fatty acid analysis of liquid cultures of CUPH-1 transformed K27 (fadD) (C12:0-ACP) | Fatty Acids (nmol/ml), total fatty acid analysis of liquid cultures of CUPH-1 transformed K27 (fadD) (C16:0-ACP [2]) | Fatty Acids (nmol/ml), total fatty acid analysis of liquid cultures of CUPH-1 transformed K27 (fadD) (12:1-ACP) | Fatty Acids (nmol/ml), total fatty acid analysis of liquid cultures of CUPH-1 transformed K27 (fadD) (C14:0-ACP [3]) | Fatty Acyl Composition of Transgenic Canola Seeds (mol %), 14:0 (C14:0-ACP [4])
elm Class II acyl-ACP thioesterase (ULM-1) (enzyme) | 20 mol % | 3.94 mol % | – | – | – | – | – | – | – | –
Cuphea hookeriana Class II thioesterase CUPH-1 (cDNA clone CMT9) (enzyme) | 27.6 mol % | – | 1.1 nmol/mL | 92.7 nmol/mL | 124 nmol/mL | 2 nmol/mL | 281 nmol/mL | 0.3 nmol/mL | 225 nmol/mL | 0.98 mol %
